In test [1] the target is Spike protein on live SARS-CoV-2 Victoria strain (SARS-CoV-2 (Victoria), UniProt P0DTC2 14-1273). The experiment in a line: cell-based or functional assay.
Test [2] deals with T1, SARS-CoV-2 receptor-binding domain fused to hIgG1 Fc (SARS-CoV-2 (Wuhan/Victoria), UniProt P0DTC2 330-532). The experiment in a line: SPR, trimer analyte, RBD ligand.
In test [3] the target is T1, SARS-CoV-2 receptor-binding domain …. The experiment in a line: SPR, VHH analyte over immobilised RBD. On the technique in general: SPR reads the build-up and loss of mass on a sensor chip optically.
For test [4], the target named is T2, SARS-CoV-2 receptor-binding domain (amino acids 330-532), prototypical Wuhan/Victoria (SARS-CoV-2 (Wuhan/Victoria), UniProt P0DTC2 330-532). The experiment in a line: SPR, VHH analyte over immobilised RBD.
The target in test [5] is T2, SARS-CoV-2 receptor-binding domain …. The experiment in a line: SPR, VHH analyte, biotinylated RBD ligand.
Test [6] has the same target. The experiment in a line: SPR.
Test [7] shares this target. The experiment in a line: SPR, RBD binding kinetics.
In test [8] the target is T1, SARS-CoV-2 receptor-binding domain …. The experiment in a line: SPR, VHH analyte, RBD-Fc ligand.

B1: C1 trimer (VHH)
chain: QVQLVESGGGLVQPGGSLRLSCAASGFTNDFYSIAWFRQAPGKEREGVSWLSVSDNTPTYVDSVKDRFTISRHNANNTVYLQMNMLKPEDTAIYYCAAGRFAGRDTWPSSYDYWGQGTQVTVSSGSGSGSQVQLVESGGGLVQPGGSLRLSCAASGFTNDFYSIAWFRQAPGKEREGVSWLSVSDNTPTYVDSVKDRFTISRHNANNTVYLQMNMLKPEDTAIYYCAAGRFAGRDTWPSSYDYWGQGTQVTVSSGSGSGSQVQLVESGGGLVQPGGSLRLSCAASGFTNDFYSIAWFRQAPGKEREGVSWLSVSDNTPTYVDSVKDRFTISRHNANNTVYLQMNMLKPEDTAIYYCAAGRFAGRDTWPSSYDYWGQGTQVTVSS
For the molecule B1, the “ND 50 MN assay, live virus” value in test [1] is 4.9 nM. For the same molecule, in test [2], the affinity, expressed as Kd, was 0.053 nM; the T1/2 is 4.03 h; the koff is 4.8e-05 s⁻¹; the kon stood at 900000 M⁻¹ s⁻¹.

B2: B12 (VHH)
VHH: QVQLVESGGGFVQPGGSLRLSCAVSGGTFSTYGMGWFRQAPGKEREIVAAIRRSGSTYYADSVRGRFTISRDNAKNSVLLQMNSLKPEDTAVYYCAARRAGREYEYWGQGTQVTVSS
notes: also called VHH B12
For the molecule B2, in test [3], binding was put at a Kd of 0.077 nM, the T1/2 worked out at 0.7 h, the off-rate (koff) was 0.00027 s⁻¹ and the kon was determined as 3.6e+06 M⁻¹ s⁻¹.

B3: H3 (VHH)
VHH: QVQLVESGGGLVKTGGSLRLSCAASGRTFSTYSMGWFRQAPGKEREFVAGMRWTGSSTFYSDSVKGRFTVSRNNAKDTVYLHMNSLKPEDTAVYYCAITTIVRAYYTEYTEADFGSWGQGTQVTVSS
In test [4], B3 returned a Kd of 0.025 nM and a T1/2 of 0.583 h. In test [5], the Kd was 0.025 nM and the T1/2 was 0.583 h.

B4: F2 (VHH)
VHH: QVQLVESGGGLVQAGGSLRLACIASGRTFHSYVMAWFRQAPGKEREFVAAISWSSTPTYYGESVKGRFTISRDNAKNTVYLQMNRLKPEDTAVYFCAADRGESYYYTRPTEYEFWGQGTQVTVSS
notes: also called VHH F2
Take B4: the Kd in test [4] and in test [5] was 0.04 nM throughout.

B5: C1 (VHH)
VHH: QVQLVESGGGLVQPGGSLRLSCAASGFTNDFYSIAWFRQAPGKEREGVSWLSVSDNTPTYVDSVKDRFTISRHNANNTVYLQMNMLKPEDTAIYYCAAGRFAGRDTWPSSYDYWGQGTQVTVSS
As to B5, the Kd in test [4] and in test [5] was 0.615 nM each time.

B6: F2-SUMO-C5-Fc (Fc fusion)
chain: QVQLVESGGGLVQAGGSLRLACIASGRTFHSYVMAWFRQAPGKEREFVAAISWSSTPTYYGESVKGRFTISRDNAKNTVYLQMNRLKPEDTAVYFCAADRGESYYYTRPTEYEFWGQGTQVTVSSGSGSGSDSEVNQEAKPEVKPEVKPETHINLKVSDGSSEIFFKIKKTTPLRRLMEAFAKRQGKEMDSLRFLYDGIRIQADQTPEDLDMEDNDIIEAHREQIGSGSGSQVQLVESGGGSVQAGGSLTLSCVASGVTLGRHAIGWFRQAPGKERERVSCIRTFDGITSYVESTKGRFTISSNNAMNTVYLQMNSLKPEDTAVYFCALGVTAACSDNPYFWGQGTQVTVSS
notes: also called F2-GSGSGS-SUMO-GSGSGS-C5
Regarding B6, in test [6], the “fold increase in affinity on combining the VHHs” value (“fold increase in affinity” below) is ~85 fold. In test [7], this molecule had a Kd of 0.00075 nM, a T1/2 of 11 h, a koff of 1.7e-05 s⁻¹ and a kon of 2.3e+07 M⁻¹ s⁻¹.

B7: C1-SUMO-H11-H4-Fc (Fc fusion)
chain: QVQLVESGGGLVQPGGSLRLSCAASGFTNDFYSIAWFRQAPGKEREGVSWLSVSDNTPTYVDSVKDRFTISRHNANNTVYLQMNMLKPEDTAIYYCAAGRFAGRDTWPSSYDYWGQGTQVTVSSGSGSGSDSEVNQEAKPEVKPEVKPETHINLKVSDGSSEIFFKIKKTTPLRRLMEAFAKRQGKEMDSLRFLYDGIRIQADQTPEDLDMEDNDIIEAHREQIGSGSGSQVQLVESGGGLMQAGGSLRLSCAVSGRTFSTAAMGWFRQAPGKEREFVAAIRWSGGSAYYADSVKGRFTISRDKAKNTVYLQMNSLKYEDTAVYYCAQTHYVSYLLSDYATWPYDYWGQGTQVTVSS
notes: also called C1-GSGSGS-SUMO-GSGSGS-H11-H4
For B7, the “fold increase in affinity” value in test [6] is ~40 fold. Also, in test [7], the dissociation constant (Kd) came out at 0.013 nM, the T1/2 is 2.8 h, the koff turned out to be 6.8e-05 s⁻¹ and the kon came to 5.1e+06 M⁻¹ s⁻¹.

B8: C1-SUMO-C5-Fc (Fc fusion)
chain: QVQLVESGGGLVQPGGSLRLSCAASGFTNDFYSIAWFRQAPGKEREGVSWLSVSDNTPTYVDSVKDRFTISRHNANNTVYLQMNMLKPEDTAIYYCAAGRFAGRDTWPSSYDYWGQGTQVTVSSGSGSGSDSEVNQEAKPEVKPEVKPETHINLKVSDGSSEIFFKIKKTTPLRRLMEAFAKRQGKEMDSLRFLYDGIRIQADQTPEDLDMEDNDIIEAHREQIGSGSGSQVQLVESGGGSVQAGGSLTLSCVASGVTLGRHAIGWFRQAPGKERERVSCIRTFDGITSYVESTKGRFTISSNNAMNTVYLQMNSLKPEDTAVYFCALGVTAACSDNPYFWGQGTQVTVSS
notes: also called C1-GSGSGS-SUMO-GSGSGS-C5
Turning to B8, the “fold increase in affinity” value in test [6] is ~240 fold. In test [7], this molecule showed a Kd of 0.00163 nM, a T1/2 of 246 h, a koff of 4.9e-05 s⁻¹ and a kon of 3e+07 M⁻¹ s⁻¹.

B9: VHH_H6 (VHH)
VHH: QVQLVESGGGLVQPGGSLTLSCVASESSLAPYRVAWFRQAPGKEREGVSCISRDAHPTSTYYTASVKGRFTMSRDNAKNTVYLQMNSLKPSDTAVYYCATDLGGYCSDSNYPRAWWGQGTQVTVSS
In test [8], B9 registered a Kd of 0.472 nM and a T1/2 of 0.517 h.

B10: H3 trimer (VHH)
chain: QVQLVESGGGLVKTGGSLRLSCAASGRTFSTYSMGWFRQAPGKEREFVAGMRWTGSSTFYSDSVKGRFTVSRNNAKDTVYLHMNSLKPEDTAVYYCAITTIVRAYYTEYTEADFGSWGQGTQVTVSSGAVLAPQVQLVESGGGLVKTGGSLRLSCAASGRTFSTYSMGWFRQAPGKEREFVAGMRWTGSSTFYSDSVKGRFTVSRNNAKDTVYLHMNSLKPEDTAVYYCAITTIVRAYYTEYTEADFGSWGQGTQVTVSSGSGSGSQVQLVESGGGLVKTGGSLRLSCAASGRTFSTYSMGWFRQAPGKEREFVAGMRWTGSSTFYSDSVKGRFTVSRNNAKDTVYLHMNSLKPEDTAVYYCAITTIVRAYYTEYTEADFGSWGQGTQVTVSS
As for B10, the “ND 50 MN assay, live virus” value in test [1] was determined as 0.4 nM. In test [2], this molecule registered a dissociation constant Kd of 0.0003 nM, a T1/2 of 5.82 h, a koff of 3.3e-05 s⁻¹ and a kon of 1.2e+08 M⁻¹ s⁻¹.

B11: C5 trimer (VHH)
chain: QVQLVESGGGSVQAGGSLTLSCVASGVTLGRHAIGWFRQAPGKERERVSCIRTFDGITSYVESTKGRFTISSNNAMNTVYLQMNSLKPEDTAVYFCALGVTAACSDNPYFWGQGTQVTVSSGSGSGSQVQLVESGGGSVQAGGSLTLSCVASGVTLGRHAIGWFRQAPGKERERVSCIRTFDGITSYVESTKGRFTISSNNAMNTVYLQMNSLKPEDTAVYFCALGVTAACSDNPYFWGQGTQVTVSSGSGSGSQVQLVESGGGSVQAGGSLTLSCVASGVTLGRHAIGWFRQAPGKERERVSCIRTFDGITSYVESTKGRFTISSNNAMNTVYLQMNSLKPEDTAVYFCALGVTAACSDNPYFWGQGTQVTVSS
notes: also called trimeric C5 nanobody; C5-6GS-C5-6GS-C5
Take B11: the “ND 50 MN assay, live virus” value in test [1] was determined as 0.02 nM. In test [2], this molecule had a Kd of 0.018 nM and a T1/2 of 1.53 h.

B12: C1-SUMO-H3-Fc (Fc fusion)
chain: QVQLVESGGGLVQPGGSLRLSCAASGFTNDFYSIAWFRQAPGKEREGVSWLSVSDNTPTYVDSVKDRFTISRHNANNTVYLQMNMLKPEDTAIYYCAAGRFAGRDTWPSSYDYWGQGTQVTVSSGSGSGSDSEVNQEAKPEVKPEVKPETHINLKVSDGSSEIFFKIKKTTPLRRLMEAFAKRQGKEMDSLRFLYDGIRIQADQTPEDLDMEDNDIIEAHREQIGSGSGSQVQLVESGGGLVKTGGSLRLSCAASGRTFSTYSMGWFRQAPGKEREFVAGMRWTGSSTFYSDSVKGRFTVSRNNAKDTVYLHMNSLKPEDTAVYYCAITTIVRAYYTEYTEADFGSWGQGTQVTVS
notes: also called C1-GSGSGS-SUMO-GSGSGS-H3
Consider B12, for which, in test [6], the “fold increase in affinity” value was ~40 fold. For the same molecule, in test [7], the Kd was found to be 0.011 nM, the T1/2 was 4.1 h, the koff amounted to 4.7e-05 s⁻¹ and the kon was determined as 4.3e+06 M⁻¹ s⁻¹.

B13: A8 trimer (bispecific antibody)
chain: QVQLVESGGGLVQAGGSLRLSCAASGGTFSTAAMGWFRQAPGEERECVASIGWRGVRTWYADSVKGRFTISRDNPQNTVYLQMNNLKSGDTAVYYCAASVGNYGLPWAHFEYDFWGQGIQVTVSSGSGSGSQVQLVESGGGLVQAGGSLRLSCAASGGTFSTAAMGWFRQAPGEERECVASIGWRGVRTWYADSVKGRFTISRDNPQNTVYLQMNNLKSGDTAVYYCAASVGNYGLPWAHFEYDFWGQGIQVTVSSGSGSGSQVQLVESGGGLVQAGGSLRLSCAASGGTFSTAAMGWFRQAPGEERECVASIGWRGVRTWYADSVKGRFTISRDNPQNTVYLQMNNLKSGDTAVYYCAASVGNYGLPWAHFEYDFWGQGTQVTVSSKHHHHHH
As to B13, the “ND 50 MN assay, live virus” value in test [1] was 0.09 nM. Also, in test [2], binding was characterised by a dissociation constant (Kd) of 0.005 nM and the T1/2 was found to be 4.63 h.

One may read the Kd as the concentration at which binding is half-saturated. Low values mean a tighter complex, high ones a looser complex. Usually koff stands for the first-order rate constant of dissociation. A lower koff goes with slow dissociation. The kon is a measure of how fast the partners come together. Higher therefore signals fast association.

(Values after US20230374116A1 (ROSALIND FRANKLIN INSTITUTE, published 2023).)
